Data on 1 molecule can be found in patent US20180199611A1 (UNIVERSITY OF FLORIDA RESEARCH FOUNDATION, published 2018).

The target in the assay is T1, I-A(b) MHC II molecule (;mouse, UniProt P14434 24-218; P14483 28-226).
T1 construct: Custom-prepared PE-labeled tetramer
T1 sequence (MHC II alpha): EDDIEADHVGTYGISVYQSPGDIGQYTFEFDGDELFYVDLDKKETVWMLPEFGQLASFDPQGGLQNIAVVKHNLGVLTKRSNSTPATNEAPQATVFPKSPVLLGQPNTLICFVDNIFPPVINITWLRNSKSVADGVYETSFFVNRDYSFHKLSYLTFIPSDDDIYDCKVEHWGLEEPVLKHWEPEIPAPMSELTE
T1 sequence (MHC II beta): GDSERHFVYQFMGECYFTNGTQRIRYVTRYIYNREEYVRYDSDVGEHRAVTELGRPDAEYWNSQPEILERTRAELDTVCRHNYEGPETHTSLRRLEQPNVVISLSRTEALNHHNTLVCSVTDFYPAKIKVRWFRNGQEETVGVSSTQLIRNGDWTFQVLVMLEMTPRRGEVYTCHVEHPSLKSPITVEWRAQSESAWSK
The experiment in a line: peptide binding to MHC II during preparation of I-A(b) tetramers; method not described.

B1: DlaT 245-259 peptide (VAPPAPVAPSAPVAA) (peptide)
peptide: VAPPAPVAPSAPVAA
notes: Synthetic 15-mer; It was loaded in a custom PE-labeled I-A(b) tetramer; also called Tetramer DlaT^245 peptide; pep of dihydrolipoamide acyltransferase
Turning to B1, the binding result is given as “binds”.
